Target: T1, HLA-A*02:01 (human)
T1 construct: MHC monomers captured on streptavidin plates; the UV-sensitive peptide is cleaved and exchanged with the test peptide; also called peptide-receptive MHC molecules; MHC class I
Assay: UV ligand-exchange ELISA (anti-b2m); +++ = exchange yield >=50
Excerpt: Candidate peptides for T cell based therapies according to the present invention were further tested for their MHC binding capacity (affinity). The individual peptide-MHC complexes were produced by UV-ligand exchange, where a UV-sensitive peptide is cleaved upon UV-irradiation, and exchanged with the peptide of interest as analyzed. Only peptide candidates that can effectively bind and stabilize the peptide-receptive MHC molecules prevent dissociation of the MHC complexes. To determine the yield of the exchange reaction, an ELISA was performed based on the detection of the light chain (β2m) of stabilized MHC complexes. The assay was performed as generally described in Rodenko et al. (Rodenko et al., 2006).
96 well MAXISorp plates (NUNC) were coated over night with 2 ug/ml streptavidin in PBS at room temperature, washed 4× and blocked for 1 h at 37° C. in 2% BSA containing blocking buffer. Refolded HLA-A*02:01/MLA-001 monomers served as standards, covering the range of 15-500 ng/ml. Peptide-MHC monomers of the UV-exchange reaction were diluted 100 fold in blocking buffer. Samples were incubated for 1 h at 37° C., washed four times, incubated with 2 ug/ml HRP conjugated anti-β2m for 1 h at 37° C., washed again and detected with TMB solution that is stopped with […]. Absorption was measured at 450 nm. Candidate peptides that show a high exchange yield (preferably higher than 50%, most preferred higher than 75%) are generally preferred for a generation and production of antibodies or fragments thereof, and/or T cell receptors or fragments thereof, as they show sufficient avidity to the MHC molecules and prevent dissociation of the MHC complexes.

Row | Binder | peptide exchange yield [%]
1 | FLTEMVHFI | 50 to 75
2 | ALNESLVEC | 50 to 75
3 | SLFESLEYL (also called ZFP42-001) | 50 to 75
4 | VLDGKVAVV | 50 to 75
5 | SLAGNLQEL | 50 to 75
6 | TLNTLDINL | 50 to 75
7 | FLLDKPQDLSI | 50 to 75
8 | GLAGDNIYL | 50 to 75
9 | GLLETTGLLAT | 50 to 75
10 | LMYPYIYHV | 50 to 75
11 | ILAVDGVLSV | 50 to 75
12 | VLIEYNFSI | 50 to 75
13 | KVWSDVTPL (also called MMP-002) | 50 to 75
14 | ALFETLIQL | 50 to 75
15 | LLLEAVWHL | 50 to 75
16 | ALLEQTGDMSL | 50 to 75
17 | LLWGNLPEI | 50 to 75
18 | ALAGIVTNV | 50 to 75
19 | LLFDWSGTGRADA | 50 to 75
20 | KLLNMIFSI | 50 to 75
21 | LLWPSSVPA | 50 to 75
22 | RVIDDSLVVGV | 50 to 75

Row | Binder | peptide exchange yield [%]
23 | YLEDGFAYV | 50 to 75
24 | AAIEIFEKV | 50 to 75
25 | LLDDIFIRL | 50 to 75
26 | TVLQELINV | 50 to 75
27 | VIIKGLEEITV | 50 to 75
28 | ALSELLQQV | 50 to 75
29 | IITEVITRL | 50 to 75
30 | VIIQNLPAL | 50 to 75
31 | VLEDKVLSV | 50 to 75
32 | SIIEYLPTL | 50 to 75
33 | KLQEELNKV | 50 to 75
34 | LLWGHPRVALA (also called MXRA5-003) | 50 to 75
35 | MLLDTVQKV | 50 to 75
36 | KIWEELSVLEV (also called MAGEA3-003) | 50 to 75
37 | ALHPVQFYL | 50 to 75
38 | TLLTFFHEL | 50 to 75
39 | KLQEEIPVL | 50 to 75
40 | YLMDDFSSL (also called COL6A3-015) | 50 to 75
41 | VLMQDSRLYL | 50 to 75
42 | ALSELERVL | 50 to 75
43 | YLLDMPLWYL | 50 to 75
44 | KLFETVEEL | 50 to 75

Row | Binder | peptide exchange yield [%]
45 | KMSELQTYV | 50 to 75
46 | RMPTVLQCV | 50 to 75
47 | ALLSPLSLA | 50 to 75
48 | FLNDIFERI | 50 to 75
49 | ALFHMNILL | 50 to 75
50 | SEWGSPHAAVP | 50 to 75
51 | KQFEGTVEI | 50 to 75
52 | LLTTVLINA | 50 to 75
53 | TLYNPERTITV (also called IGF-004) | 50 to 75
54 | KLLAVIHEL (also called RAD54B-002) | 50 to 75
55 | FLPQPVPLSV | 50 to 75
56 | GLAALAVHL | 50 to 75
57 | KLIDHQGLYL | 50 to 75
58 | HLWGHALFL | 50 to 75
59 | GLLGKVTSV | 50 to 75
60 | IMPTFDLTKV | 50 to 75
61 | NVAEIVIHI | 50 to 75
62 | VLFGELPAL | 50 to 75
63 | LMQDSRLYL | 50 to 75
64 | FLMKNSDLYGA | 50 to 75
65 | SLLELDGINLRL | 50 to 75
66 | YLYQILQGI | 50 to 75

Reference: US20160279215A1, “NOVEL PEPTIDES AND COMBINATION OF PEPTIDES FOR USE IN IMMUNOTHERAPY AGAINST VARIOUS TUMORS” (immatics biotechnologies GmbH, priority 2015, published 2016)
